Source: IntAct's records for PubMed 31515488

B1: Isoform 1 of Ras association domain-containing protein 2 (Homo sapiens), P50749-1 (parent)
chain: MDYSHQTSLVPCGQDKYISKNELLLHLKTYNLYYEGQNLQLRHREEEDEFIVEGLLNISWGLRRPIRLQMQDDNERIRPPPSSSSWHSGCNLGAQGTTLKPLTVPKVQISEVDAPPEGDQMPSSTDSRGLKPLQEDTPQLMRTRSDVGVRRRGNVRTPSDQRRIRRHRFSINGHFYNHKTSVFTPAYGSVTNVRINSTMTTPQVLKLLLNKFKIENSAEEFALYVVHTSGEKQKLKATDYPLIARILQGPCEQISKVFLMEKDQVEEVTYDVAQYIKFEMPVLKSFIQKLQEEEDREVKKLMRKYTVLRLMIRQRLEEIAETPATI
partner: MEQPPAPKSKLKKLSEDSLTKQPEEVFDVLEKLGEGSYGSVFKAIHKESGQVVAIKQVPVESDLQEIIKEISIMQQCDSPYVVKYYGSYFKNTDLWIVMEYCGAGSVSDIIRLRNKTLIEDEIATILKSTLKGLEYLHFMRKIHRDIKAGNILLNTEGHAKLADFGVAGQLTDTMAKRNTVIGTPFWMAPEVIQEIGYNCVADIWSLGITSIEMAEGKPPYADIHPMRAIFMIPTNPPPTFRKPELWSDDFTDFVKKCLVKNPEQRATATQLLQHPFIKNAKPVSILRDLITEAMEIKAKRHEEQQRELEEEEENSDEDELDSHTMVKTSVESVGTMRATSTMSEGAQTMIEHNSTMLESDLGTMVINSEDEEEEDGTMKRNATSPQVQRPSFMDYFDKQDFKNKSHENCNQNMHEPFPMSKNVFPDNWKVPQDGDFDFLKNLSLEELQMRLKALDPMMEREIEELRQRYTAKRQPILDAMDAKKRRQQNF
B2: Proteasome subunit beta type-1 (Homo sapiens), P20618 (parent)
chain: MLSSTAMYSAPGRDLGMEPHRAAGPLQLRFSPYVFNGGTILAIAGEDFAIVASDTRLSEGFSIHTRDSPKCYKLTDKTVIGCSGFHGDCLTLTKIIEARLKMYKHSNNKAMTTGAIAAMLSTILYSRRFFPYYVYNIIGGLDEEGKGAVYSFDPVGSYQRDSFKAGGSASAMLQPLLDNQVGFKNMQNVEHVPLSLDRAMRLVKDVFISAAERDVYTGDALRICIVTKEGIREETVSLRKD
partner: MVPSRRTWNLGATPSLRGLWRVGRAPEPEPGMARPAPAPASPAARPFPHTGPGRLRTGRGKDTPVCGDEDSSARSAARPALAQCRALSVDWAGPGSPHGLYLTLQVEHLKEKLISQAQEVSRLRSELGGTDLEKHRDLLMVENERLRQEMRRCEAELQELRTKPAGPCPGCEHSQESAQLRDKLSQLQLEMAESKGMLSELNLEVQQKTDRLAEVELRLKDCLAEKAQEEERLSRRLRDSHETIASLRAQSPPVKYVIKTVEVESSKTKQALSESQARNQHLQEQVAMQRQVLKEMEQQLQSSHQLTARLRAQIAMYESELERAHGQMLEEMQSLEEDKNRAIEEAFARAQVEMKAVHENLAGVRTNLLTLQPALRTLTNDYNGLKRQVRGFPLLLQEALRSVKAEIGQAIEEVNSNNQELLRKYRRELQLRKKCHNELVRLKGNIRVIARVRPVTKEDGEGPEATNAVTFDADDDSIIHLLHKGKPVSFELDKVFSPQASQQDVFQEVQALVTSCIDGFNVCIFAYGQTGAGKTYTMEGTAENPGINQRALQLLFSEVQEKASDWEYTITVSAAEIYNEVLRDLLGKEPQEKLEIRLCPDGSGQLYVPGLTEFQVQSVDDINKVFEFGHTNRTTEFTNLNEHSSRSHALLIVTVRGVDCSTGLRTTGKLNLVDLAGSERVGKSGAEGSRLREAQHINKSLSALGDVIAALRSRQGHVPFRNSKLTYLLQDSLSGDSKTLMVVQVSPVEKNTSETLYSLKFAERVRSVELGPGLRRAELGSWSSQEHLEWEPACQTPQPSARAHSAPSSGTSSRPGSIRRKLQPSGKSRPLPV
B3: Ligand of Numb protein X 2 (Homo sapiens), Q8N448 (parent)
chain: MGTTSDEMVSVEQTSSSSLNPLCFECGQQHWTRENHLYNYQNEVDDDLVCHICLQPLLQPLDTPCGHTFCYKCLRNFLQEKDFCPLDRKRLHFKLCKKSSILVHKLLDKLLVLCPFSSVCKDVMQRCDLEAHLKNRCPGASHRRVALERRKTSRTQAEIENENGPTLLDPAGTLSPEADCLGTGAVPVERHLTSASLSTWSEEPGLDNPAFEESAGADTTQQPLSLPEGEITTIEIHRSNPYIQLGISIVGGNETPLINIVIQEVYRDGVIARDGRLLAGDQILQVNNYNISNVSHNYARAVLSQPCNTLHLTVLRERRFGNRAHNHSDSNSPREEIFQVALHKRDSGEQLGIKLVRRTDEPGVFILDLLEGGLAAQDGRLSSNDRVLAINGHDLKYGTPELAAQIIQASGERVNLTIARPGKPQPGNTIREAGNHSSSSQHHTPPPYYSRPSSHKDLTQCVTCQEKHITVKKEPHESLGMTVAGGRGSKSGELPIFVTSVPPHGCLARDGRIKRGDVLLNINGIDLTNLSHSEAVAMLKASAASPAVALKALEVQIVEEATQNAEEQPSTFSENEYDASWSPSWVMWLGLPSTLHSCHDIVLRRSYLGSWGFSIVGGYEENHTNQPFFIKTIVLGTPAYYDGRLKCGDMIVAVNGLSTVGMSHSALVPMLKEQRNKVTLTVICWPGSLV
partner: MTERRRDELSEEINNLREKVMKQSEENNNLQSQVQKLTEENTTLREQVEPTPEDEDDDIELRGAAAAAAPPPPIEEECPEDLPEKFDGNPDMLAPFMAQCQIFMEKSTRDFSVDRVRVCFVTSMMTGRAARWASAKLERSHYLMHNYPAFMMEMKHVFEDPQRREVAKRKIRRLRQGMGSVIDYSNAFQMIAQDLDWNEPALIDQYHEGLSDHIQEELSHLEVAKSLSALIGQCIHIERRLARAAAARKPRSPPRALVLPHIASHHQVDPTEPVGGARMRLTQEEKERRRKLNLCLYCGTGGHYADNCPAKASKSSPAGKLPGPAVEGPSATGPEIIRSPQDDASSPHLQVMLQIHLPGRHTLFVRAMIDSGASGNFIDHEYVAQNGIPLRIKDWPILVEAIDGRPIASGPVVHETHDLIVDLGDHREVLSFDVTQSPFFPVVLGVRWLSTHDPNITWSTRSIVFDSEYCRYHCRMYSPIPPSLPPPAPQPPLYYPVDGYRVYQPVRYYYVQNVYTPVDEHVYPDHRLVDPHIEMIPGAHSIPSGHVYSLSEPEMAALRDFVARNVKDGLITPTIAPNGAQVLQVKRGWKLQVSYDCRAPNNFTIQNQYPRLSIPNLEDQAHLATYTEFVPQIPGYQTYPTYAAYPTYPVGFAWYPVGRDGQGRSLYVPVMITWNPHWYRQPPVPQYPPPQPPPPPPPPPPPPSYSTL
B4: Transcription factor 12 (Homo sapiens), Q99081-3 (parent)
chain: MNPQQQRMAAIGTDKELSDLLDFSAMFSPPVNSGKTRPTTLGSSQFSGSGIDERGGTTSWGTSGQPSPSYDSSRGFTDSPHYSDHLNDSRLGAHEGLSPTPFMNSNLMGKTSERGSFSLYSRDTGLPGCQSSLLRQDLGLGSPAQLSSSGKPGTAYYSFSATSSRRRPLHDSAALDPLQAKKVRKVPPGLPSSVYAPSPNSDDFNRESPSYPSPKPPTSMFASTFFMQDGTHNSSDLWSSSNGMSQPGFGGILGTSTSHMSQSSSYGNLHSHDRLSYPPHSVSPTDINTSLPPMSSFHRGSTSSSPYVAASHTPPINGSDSILGTRGNAAGSSQTGDALGKALASIYSPDHTSSSFPSNPSTPVGSPSPLTGTSQWPRPGGQAPSSPSYENSLHSLKNRVEQQLHEHLQDAMSFLKDVCEQSRMEDRLDRLDDAIHVLRNHAVGPSTSLPAGHSDIHSLLGPSHNAPIGSLNSNYGGSSLVASSRSASMVGTHREDSVSLNGNHSVLSSTVTTSSTDLNHKTQENYRGGLQSQSGTVVTTEIKTENKEKDENLHEPPSSDDMKSDDESSQKDIKVSSRGRTSSTNEDEDLNPEQKIEREKERRMANNARERLRVRDINEAFKELGRMCQLHLKSEKPQTKLLILHQAVAVILSLEQQVRERNLNPKAACLKRREEEKVSAVSAEPPTTLPGTHPGLSETTNPMGHM
partner: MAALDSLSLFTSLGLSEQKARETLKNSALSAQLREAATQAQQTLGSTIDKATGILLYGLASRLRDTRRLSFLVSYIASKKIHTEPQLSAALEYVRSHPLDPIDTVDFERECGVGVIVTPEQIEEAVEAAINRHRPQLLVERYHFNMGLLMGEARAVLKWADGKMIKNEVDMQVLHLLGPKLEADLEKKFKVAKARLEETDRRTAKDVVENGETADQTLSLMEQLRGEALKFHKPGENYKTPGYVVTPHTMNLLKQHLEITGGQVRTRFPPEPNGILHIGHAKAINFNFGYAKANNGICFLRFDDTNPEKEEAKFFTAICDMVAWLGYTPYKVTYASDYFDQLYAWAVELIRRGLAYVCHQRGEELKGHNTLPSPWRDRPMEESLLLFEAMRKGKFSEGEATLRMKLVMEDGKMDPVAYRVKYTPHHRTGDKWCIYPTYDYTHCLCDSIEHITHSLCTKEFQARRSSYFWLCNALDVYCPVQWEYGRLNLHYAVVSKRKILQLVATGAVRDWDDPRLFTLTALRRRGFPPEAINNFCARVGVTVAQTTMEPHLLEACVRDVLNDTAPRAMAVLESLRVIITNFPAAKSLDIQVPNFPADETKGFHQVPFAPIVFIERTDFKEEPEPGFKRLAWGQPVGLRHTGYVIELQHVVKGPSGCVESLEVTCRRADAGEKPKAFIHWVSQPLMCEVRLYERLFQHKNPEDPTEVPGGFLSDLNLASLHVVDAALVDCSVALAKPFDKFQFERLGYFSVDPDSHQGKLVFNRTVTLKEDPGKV
B5: "N-acyl-aromatic-L-amino acid amidohydrolase (carboxylate-forming)" (Homo sapiens), Q96HD9 (parent)
chain: MCSLPVPREPLRRVAVTGGTHGNEMSGVYLARHWLHAPAELQRASFSAVPVLANPAATSGCRRYVDHDLNRTFTSSFLNSRPTPDDPYEVTRARELNQLLGPKASGQAFDFVLDLHNTTANMGTCLIAKSSHEVFAMHLCRHLQLQYPELSCQVFLYQRSGEESYNLDSVAKNGLGLELGPQPQGVLRADIFSRMRTLVATVLDFIELFNQGTAFPAFEMEAYRPVGVVDFPRTEAGHLAGTVHPQLQDRDFQPLQPGAPIFQMFSGEDLLYEGESTVYPVFINEAAYYEKGVAFVQTEKFTFTVPAMPALTPAPSPAS
partner: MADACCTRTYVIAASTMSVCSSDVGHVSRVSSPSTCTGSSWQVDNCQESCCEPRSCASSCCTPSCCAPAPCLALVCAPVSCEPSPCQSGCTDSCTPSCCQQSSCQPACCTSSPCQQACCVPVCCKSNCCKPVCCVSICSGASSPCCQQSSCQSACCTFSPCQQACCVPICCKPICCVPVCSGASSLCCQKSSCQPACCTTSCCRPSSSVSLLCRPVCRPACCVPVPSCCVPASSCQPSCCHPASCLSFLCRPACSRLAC

Variants of: B1
Settings: with stk3_human STK3, Q13188

Which “effect of a mutation on the interaction” value does the source give for R144H here?
Its value is “with no effect”.

Variants of: B2
Settings: with kifc3_human KIFC3, Q9BVG8

With P11A as the variant, how does the “effect of a mutation on the interaction” value read?
Its value is “with no effect”.

Variants of: B3
Settings: with peg10_human PEG10, Q86TG7

Which “effect of a mutation on the interaction” value does the source give for V145I here?
Its value is “with no effect”.

How did the “effect of a mutation on the interaction” value turn out when T183I was run?
The value was “with no effect”.

Variants of: B4
Settings: with syq_human QARS1, P47897

With R74G as the variant, how does the “effect of a mutation on the interaction” value read?
Its value is “with no effect”.

With Y120C as the variant, how does the “effect of a mutation on the interaction” value read?
Its value is “with no effect”.

A482V was tested. Which “effect of a mutation on the interaction” value did it give?
Its value is “with no effect”.

How did the “effect of a mutation on the interaction” value turn out when A155T was run?
The value was “with no effect”.

How did the “effect of a mutation on the interaction” value turn out when S446F was run?
Its value is “with no effect”.

N606H was tested. Which “effect of a mutation on the interaction” value did it give?
Its value is “with no effect”.

Variants of: B5
Settings: with kr108_human KRTAP10-8, P60410

R8Q was tested. Which “effect of a mutation on the interaction” value did it give?
Its value is “with no effect”.
